{
  "source": "patent US20240360228A1",
  "about": "(BIOLEGEND, published 2024); further: test concentration or dose not given here",
  "biological_target": "human chemokine (C-C motif) receptor 8 (CCR8) (human, UniProt P51685 1-355)",
  "sequence (P51685 whole entry)": "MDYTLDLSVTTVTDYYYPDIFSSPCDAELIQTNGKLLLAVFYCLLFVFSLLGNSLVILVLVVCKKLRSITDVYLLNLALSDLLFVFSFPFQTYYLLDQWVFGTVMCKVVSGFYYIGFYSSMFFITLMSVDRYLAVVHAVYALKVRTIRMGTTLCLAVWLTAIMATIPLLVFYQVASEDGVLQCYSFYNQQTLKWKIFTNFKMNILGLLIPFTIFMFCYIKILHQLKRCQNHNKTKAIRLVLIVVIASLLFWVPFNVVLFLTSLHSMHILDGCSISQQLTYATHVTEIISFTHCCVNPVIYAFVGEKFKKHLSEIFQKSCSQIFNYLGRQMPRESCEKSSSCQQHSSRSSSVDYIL",
  "assay": "cell-based or functional assay",
  "data": [
    {"binder": "AB7 (antibody, V domains shown) VH: AVQLVESGGGLVQPKESLKISCAASGFTFSYAAMYWVRQTPGKGLEWVARIRTKPNNYATYYADSVKGRFTISRDDSKSMVYLQMDNLKSEDTAMYYCNIMGITRGYYFDYWGQGVMVTVSS VL: DIQMTQSPSFLSASVGDRVTINCKASQNINRYLNWYQQQLGEAPKLLIYNANNLQTGIPSRFSGSRSGTDFTLTISSLQPEDVATYFCLQHNSWPWTFGGGTKLELK", "values": [
      {"measurement": "% hCCR8-Ba/F3 - THP-1 complexes", "result": 2.2, "unit": "%"}
    ]},
    {"binder": "AB6 (antibody, V domains shown) VH: QVQLKESGPGLVQPSQTLSLTCTVSGFSLTSYHVSWVRQPPGKGLEWMGVIWTGGSTTYNSLLKSRLSISRDISKSQVFLKMNSLQTEDTATYYCARGGTVVKGGFAYWGQGTLVTVSS VL: DIQMTQSPASLSASLEEIVTITCQASQDIGNRLSWYQQKPGKSPQLLIYGATSLADGVPSRFSGSRSGTQYSLKISRLQVEDIGIYYCLQAYSTPLTFGSGTKLEIK", "values": [
      {"measurement": "% hCCR8-Ba/F3 - THP-1 complexes", "result": 1.88, "unit": "%"}
    ]}
  ]
}
